From patent publication US20100260668A1 (published 2010) come the findings set out here.

“And” between values parts separate entries of the source, which are not always exact repeats. Equal entries are not always repeated.

The target in assay [1] is T1, CD40/FC (CD40 ECD/FC chimera-His tag) (UniProt P25942 21-193).
T1 construct: extracellular domain; bought reagent; not shown: IgG FC domain and His tag of the bought chimera
In words: Direct Bind ELISA, C-terminal variable domain. Background: In an ELISA, binding on a coated surface is turned into a signal by an enzyme label.

For assay [2], the target named is T2, DLL4 (DLL4 ECD/His tag) (UniProt Q9NR61 27-529, limits assumed).
T2 construct: extracellular domain; Bought reagent
In words: Direct Bind ELISA, antigen on plate.

The target in assay [3] is T3, IGF1 (IGF-I) (UniProt P05019 49-118).
T3 construct: Bought reagent
In words: Direct Bind ELISA, antigen on plate; N-terminal VD; first value of IGF1/IGF2 cell.

Assay [4] addresses T4, IGF2 (IGF-2) (UniProt P01344 25-91).
T4 construct: Bought reagent
In words: Direct Bind ELISA, antigen on plate; N-terminal VD; second value of IGF1/IGF2 cell.

Assay [5] concerns the target T5, NRP1 (Neuropilin-1 Npn-1-His tag) (UniProt O14786-2 22-644).
T5 construct: Bought reagent
In words: Direct Bind ELISA, antigen on plate; C-terminal VD.

Assay [6] deals with T3, IGF1 (IGF-I). In words: Direct Bind ELISA, antigen on plate; C-terminal VD; first value of IGF1/IGF2 cell.
The target in assay [7] is T4, IGF2 (IGF-2). In words: Direct Bind ELISA, antigen on plate; C-terminal VD; second value of IGF1/IGF2 cell.
The target in assay [8] is biotinylated VEGF (UniProt P15692-4 27-191, limits assumed, biotinylated). In words: VEGF capture ELISA, antibody captured by anti-human Fc, biotinylated VEGF.
Assay [9] concerns the target T6, human DLL4 extracellular domain (human, UniProt Q9NR61 27-529, biotin label in the Notch-1 competition ELISA (sites not given)). In words: cell-based or functional assay.
The target of assay [10] is T7, human DLL4 on 293G-human DLL4 cells (human, UniProt Q9NR61 27-685).
T7 construct: whole, on cells; no method paragraph describes this FACS assay
In words: FACS: inhibition of Notch1 binding to 293G-human DLL4 cells (competitor Notch1). On the technique in general: A flow cytometer gives signals particle by particle.

Assay [11] has as its target T6, human DLL4 extracellular domain. In words: competition ELISA: biotin-labelled human DLL4 ECD pre-mixed with antibody, then on coated human Notch-1 (competitor Notch-1).
Assay [12] has the same target. In words: competition ELISA: 14 nM biotin-labelled human DLL4 ECD pre-mixed with antibody, then on coated human Notch-1 (competitor Notch-1).
Assay [13] addresses T5, NRP1 (Neuropilin-1 Npn-1-His tag). In words: Direct Bind ELISA, antigen on plate; N-terminal VD.
Assay [14] deals with T8, PlGF (Placental GF) (UniProt P49763-2 21-149, limits assumed).
T8 construct: Bought reagent
T8 sequence (looked up): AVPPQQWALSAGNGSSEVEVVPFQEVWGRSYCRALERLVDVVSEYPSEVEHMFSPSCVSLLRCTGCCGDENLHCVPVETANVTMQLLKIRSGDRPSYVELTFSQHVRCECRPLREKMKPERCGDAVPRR
In words: Direct Bind ELISA, antigen on plate.

The target in assay [15] is T9, recombinant His-RON partial ECD (R&D Systems #1947-MS) (UniProt Q04912 25-957, limits assumed).
T9 construct: extracellular domain; also called MSP Receptor ECD-His tag; not shown: His tag
In words: competition ELISA: DVD-Ig pre-incubated with 10 nM His-RON partial ECD, then on captured MSP1 (competitor MSP1).

Assay [16] addresses T5, NRP1 (Neuropilin-1 Npn-1-His tag). In words: Direct Bind ELISA, antigen on plate.

T1 sequence (P25942 21-193, change not shown): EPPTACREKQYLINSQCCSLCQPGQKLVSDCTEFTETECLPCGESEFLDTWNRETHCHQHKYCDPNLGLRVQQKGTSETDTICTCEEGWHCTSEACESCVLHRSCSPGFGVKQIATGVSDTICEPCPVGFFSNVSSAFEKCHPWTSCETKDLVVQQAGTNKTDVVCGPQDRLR
Sequence of biotinylated VEGF (P15692 other isoform, or with tags, fused parts or gaps limits assumed): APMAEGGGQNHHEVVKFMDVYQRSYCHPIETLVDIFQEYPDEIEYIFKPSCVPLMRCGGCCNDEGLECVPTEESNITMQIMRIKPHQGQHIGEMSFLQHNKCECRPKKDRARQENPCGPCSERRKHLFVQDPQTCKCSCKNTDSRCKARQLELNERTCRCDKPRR

B1: DVD009 DVD-Ig (bispecific antibody, human IgG1, kappa)
heavy: not shown
light: QIVLSQSPAILSPSPGEKVTMTCRASSSVSYIHWFQQKPGSSPKPWIYATSNLASGVPVRFSGSGSGTSYSLTISRVEAEDAATYYCQQWTSNPPTFGGGTKLEIKRTVAAPDIVMTQSPLSLTVTPGEPASISCRSSQSLLYSNGYNYLDWYLQKPGQSPQVLISLGSNRASGVPDRFSGSGSGTDFTLKISRVEAEDVGVYYCMQARQTPFTFGPGTKVDIRRTVAAPSVFIFPPSDEQLKSGTASVVCLLNNFYPREAKVQWKVDNALQSGNSQESVTEQDSKDSTYSLSSTLTLSKADYEKHKVYACEVTHQGLSSPVTKSFNRGEC
notes: outer AB001 (CD-20), inner AB009 (CD-40); HC/LC linkers short/short; also called DVD009H; DVD009L
Take B1: the binding result in [1] is “binds”.

B2: AB015 (anti-DLL-4 (seq. 1) parent antibody) (antibody, IgG1, V domains shown)
VH: EVQLVESGGGLVQPGGSLRLSCAASGFTFTDNWISWVRQAPGKGLEWVGYISPNSGFTYYADSVKGRFTISADTSKNTAYLQMNSLRAEDTAVYYCARDNFGGYFDYWGQGTLVTVSS
VL: DIQMTQSPSSLSASVGDRVTITCRASQDVSTAVAWYQQKPGKAPKLLIYSASFLYSGVPSRFSGSGSGTDFTLTISSLQPEDFATTYYCQQSYTGTVTFGQGTKVEIKR
notes: HC vector V1 (wild-type hIgG1 constant), LC vector V2 (kappa constant); also called AB015VH; AB015VL
For orientation: EC50 means the concentration that produces a half-maximal response. A high value points to a less potent agent. Take B2: it took 0.31 nM to reach a half-maximal effect in [2] (EC50).

B3: DVD042 (IGF1,2 and VEGF (seq. 1) DVD-Ig) (bispecific antibody, IgG1)
VH: QVQLVQSGAEVKKPGASVKVSCKASGYTFTSYDINWVRQATGQGLEWMGWMNPNSGNTGYAQKFQGRVTMTRNTSISTAYMELSSLRSEDTAVYYCARDPYYYYYGMDVWGQGTTVTVSSASTKGPEVQLVESGGGLVQPGGSLRLSCAASGYTFTNYGMNWVRQAPGKGLEWVGWINTYTGEPTYAADFKRRFTFSLDTSKSTAYLQMNSLRAEDTAVYYCAKYPHYYGSSHWYFDVWGQGTLVTVSS
VL: QSVLTQPPSVSAAPGQKVTISCSGSSSNIENNHVSWYQQLPGTAPKLLIYDNNKRPSGIPDRFSGSKSGTSATLGITGLQTGDEADYYCETWDTSLSAGRVFGGGTKLTVLGQPKAAPDIQMTQSPSSLSASVGDRVTITCSASQDISNYLNWYQQKPGKAPKVLIYFTSSLHSGVPSRFSGSGSGTDFTLTISSLQPEDFATYYCQQYSTVPWTFGQGTKVEIKR
notes: HC vector V1 (wild-type hIgG1 constant), LC vector V4 (lambda signal peptide, kappa constant); also called DVD042H; DVD042L
In the case of B3, the EC50 was determined as 2.54 nM in assay [3] and 17.6 nM in [4].

B4: DVD049 (VEGF (seq. 1) and NRP1 (seq. 1) DVD-Ig) (bispecific antibody, IgG1)
VH: EVQLVESGGGLVQPGGSLRLSCAASGYTFTNYGMNWVRQAPGKGLEWVGWINTYTGEPTYAADFKRRFTFSLDTSKSTAYLQMNSLRAEDTAVYYCAKYPHYYGSSHWYFDVWGQGTLVTVSSASTKGPEVQLVESGGGLVQPGGSLRLSCAASGFSFSSEPISWVRQAPGKGLEWVSSITGKNGYTYYADSVKGRFTISADTSKNTAYLQMNSLRAEDTAVYYCARWGKKVYGMDVWGQGTLVTVSS
VL: DIQMTQSPSSLSASVGDRVTITCSASQDISNYLNWYQQKPGKAPKVLIYFTSSLHSGVPSRFSGSGSGTDFTLTISSLQPEDFATYYCQQYSTVPWTFGQGTKVEIKRTVAAPDIQMTQSPSSLSASVGDRVTITCRASQSISSYLAWYQQKPGKAPKLLIYGASSRASGVPSRFSGSGSGTDFTLTISSLQPEDFATYYCQQYMSVPITFGQGTKVEIKR
notes: HC vector V1 (wild-type hIgG1 constant), LC vector V2 (kappa constant); also called DVD049H; DVD049L
For the molecule B4, the EC50 in assay [5] came to 0.5 nM.

B5: DVD041 (VEGF (seq. 1) and IGF1,2 DVD-Ig) (bispecific antibody, IgG1)
VH: EVQLVESGGGLVQPGGSLRLSCAASGYTFTNYGMNWVRQAPGKGLEWVGWINTYTGEPTYAADFKRRFTFSLDTSKSTAYLQMNSLRAEDTAVYYCAKYPHYYGSSHWYFDVWGQGTLVTVSSASTKGPQVQLVQSGAEVKKPGASVKVSCKASGYTFTSYDINWVRQATGQGLEWMGWMNPNSGNTGYAQKFQGRVTMTRNTSISTAYMELSSLRSEDTAVYYCARDPYYYYYGMDVWGQGTTVTVSS
VL: DIQMTQSPSSLSASVGDRVTITCSASQDISNYLNWYQQKPGKAPKVLIYFTSSLHSGVPSRFSGSGSGTDFTLTISSLQPEDFATYYCQQYSTVPWTFGQGTKVEIKRTVAAPQSVLTQPPSVSAAPGQKVTISCSGSSSNIENNHVSWYQQLPGTAPKLLIYDNNKRPSGIPDRFSGSKSGTSATLGITGLQTGDEADYYCETWDTSLSAGRVFGGGTKLTVLG
notes: HC vector V1 (wild-type hIgG1 constant), LC vector V5 (kappa signal peptide, lambda constant); also called DVD041H; DVD041L
In the case of B5, the EC50 came to 381 nM in assay [6] and 7340 nM in [7].

B6: AB071 (antibody, human IgG1, kappa, L234A L235A, V domains shown)
VH: EVQLVESGGGLVQPGGSLRLSCAASGFTINASWIHWVRQAPGKGLEWVGAIYPYSGYTNYADSVKGRFTISADTSKNTAYLQMNSLRAEDTAVYYCARWGHSTSPWAMDYWGQGTLVTVSS
VL: DIQMTQSPSSLSASVGDRVTITCRASQVIRRSLAWYQQKPGKAPKLLIYAASNLASGVPSRFSGSGSGTDFTLTISSLQPEDFATYYCQQSNTSPLTFGQGTKVEIKR
In assay [8], B6 displayed an EC50 of 0.38 nM.

B7: AB015 (anti-DLL-4 (seq. 1) parent antibody) (antibody, human IgG1, kappa)
heavy: not shown
light: DIQMTQSPSSLSASVGDRVTITCRASQDVSTAVAWYQQKPGKAPKLLIYSASFLYSGVPSRFSGSGSGTDFTLTISSLQPEDFATTYYCQQSYTGTVTFGQGTKVEIKRTVAAPSVFIFPPSDEQLKSGTASVVCLLNNFYPREAKVQWKVDNALQSGNSQESVTEQDSKDSTYSLSSTLTLSKADYEKHKVYACEVTHQGLSSPVTKSFNRGEC
notes: also called AB015VH/AB015VL
As usually defined, the IC50 is the concentration that gives 50% inhibition. Regarding B7, the “Ref. Ab Inhibition of sFlt1 (IC50, nM)” value in assay [9] is 0.34 nM. Moreover, the IC50 in [10] was 2.3 nM; in assay [11] it was 0.37 nM and 0.4 nM; in assay [12] it was 2.47 nM and 2.69 nM and 2.53 nM and 2.74 nM.

B8: DVD050 (NRP1 (seq. 1) and VEGF (seq. 1) DVD-Ig) (bispecific antibody, IgG1)
VH: EVQLVESGGGLVQPGGSLRLSCAASGFSFSSEPISWVRQAPGKGLEWVSSITGKNGYTYYADSVKGRFTISADTSKNTAYLQMNSLRAEDTAVYYCARWGKKVYGMDVWGQGTLVTVSSASTKGPEVQLVESGGGLVQPGGSLRLSCAASGYTFTNYGMNWVRQAPGKGLEWVGWINTYTGEPTYAADFKRRFTFSLDTSKSTAYLQMNSLRAEDTAVYYCAKYPHYYGSSHWYFDVWGQGTLVTVSS
VL: DIQMTQSPSSLSASVGDRVTITCRASQSISSYLAWYQQKPGKAPKLLIYGASSRASGVPSRFSGSGSGTDFTLTISSLQPEDFATYYCQQYMSVPITFGQGTKVEIKRTVAAPDIQMTQSPSSLSASVGDRVTITCSASQDISNYLNWYQQKPGKAPKVLIYFTSSLHSGVPSRFSGSGSGTDFTLTISSLQPEDFATYYCQQYSTVPWTFGQGTKVEIKR
notes: HC vector V1 (wild-type hIgG1 constant), LC vector V2 (kappa constant); also called DVD050H; DVD050L
B8 gave an EC50 in assay [13] of 0.46 nM.

B9: AB047 (anti-PLGF (seq. 1) parent antibody) (antibody, IgG1, V domains shown)
VH: QVQLQQSGAELVKPGASVKISCKASGYTFTDYYINWVKLAPGQGLEWIGWIYPGSGNTKYNEKFKGKATLTIDTSSSTAYMQLSSLTSEDTAVYFCVRDSPFFDYWGQGTLLTVSS
VL: DIVLTQSPDSLAVSLGERVTMNCKSSQSLLNSGMRKSFLAWYQQKPGQSPKLLIYWASTRESGVPDRFTGSGSGTDFTLTISSVQAEDVAVYYCKQSYHLFTFGSGTKLEIKR
notes: HC vector V1 (wild-type hIgG1 constant), LC vector V2 (kappa constant); also called AB047VH; AB047VL
In the case of B9, the EC50 in [14] was 0.2 nM.

B10: DVD047 (VEGF (seq. 1) N-terminal / RON (seq. 1) C-terminal DVD-Ig) (bispecific antibody, human IgG1, kappa)
heavy: not shown
light: DIQMTQSPSSLSASVGDRVTITCSASQDISNYLNWYQQKPGKAPKVLIYFTSSLHSGVPSRFSGSGSGTDFTLTISSLQPEDFATYYCQQYSTVPWTFGQGTKVEIKRTVAAPDVVMTQSPLSLPVTPGEPASISCRSSQSLLHSNGFNYVDWYLQKPGQSPHLLIYFGSYRASGVPDRFSGSGSGTDFTLKISRVEAEDVGVYYCMQALQTPPWTFGQGTKVEIRRTVAAPSVFIFPPSDEQLKSGTASVVCLLNNFYPREAKVQWKVDNALQSGNSQESVTEQDSKDSTYSLSSTLTLSKADYEKHKVYACEVTHQGLSSPVTKSFNRGEC
notes: also called DVD047H/DVD047L
With B10, in assay [15], the IC50 came out at 21.3 nM.

B11: AB016 (anti-NRP1 (seq. 1) parent antibody) (antibody, IgG1, V domains shown)
VH: EVQLVESGGGLVQPGGSLRLSCAASGFSFSSEPISWVRQAPGKGLEWVSSITGKNGYTYYADSVKGRFTISADTSKNTAYLQMNSLRAEDTAVYYCARWGKKVYGMDVWGQGTLVTVSS
VL: DIQMTQSPSSLSASVGDRVTITCRASQSISSYLAWYQQKPGKAPKLLIYGASSRASGVPSRFSGSGSGTDFTLTISSLQPEDFATYYCQQYMSVPITFGQGTKVEIKR
notes: HC vector V1 (wild-type hIgG1 constant), LC vector V2 (kappa constant); also called AB016VH; AB016VL
B11 yielded an EC50 in [16] of 0.58 nM.
